± gives the uncertainty stated by the source.

B1: Zinc finger MYM-type protein 3, residues 589 to 668; numbered along this chain, Q14202 (parent)
chain: LSCHYCHSLFSGKPEVLDWQDQVFQFCCRDCCEDFKRLRGVVSQCEHCRQEKLLHEKLRFSGVEKSFCSEGCVLLYKQDF

The variants in the series derive from B1. Put plainly: abundance fitness (aPCA) (normalised: wild type 0, dead -1); higher = more abundant; growth selection in yeast, the domain comes from the species named. To be noted: Homo sapiens.
On to LSCHYWHSLFSGKPEVLDWQDQVFQFCCRDCCEDFKRLRGVVSQCEHCRQEKLLHEKLRFSGVEKSFCSEGCVLLYKQDF [C6W], for which the abundance fitness was -0.978 ± 0.12.

As for LSCHYCHSVFSGKPEVLDWQDQVFQFCCRDCCEDFKRLRGVVSQCEHCRQEKLLHEKLRFSGVEKSFCSEGCVLLYKQDF [L9V], the abundance fitness was 0.015 ± 0.04.

On to LSCHYCHSWFSGKPEVLDWQDQVFQFCCRDCCEDFKRLRGVVSQCEHCRQEKLLHEKLRFSGVEKSFCSEGCVLLYKQDF [L9W], for which the abundance fitness was -0.095 ± 0.044.

With LSCHYCHSNFSGKPEVLDWQDQVFQFCCRDCCEDFKRLRGVVSQCEHCRQEKLLHEKLRFSGVEKSFCSEGCVLLYKQDF [L9N], the abundance fitness is -0.121 ± 0.056.

In the case of LSCHYCHSDFSGKPEVLDWQDQVFQFCCRDCCEDFKRLRGVVSQCEHCRQEKLLHEKLRFSGVEKSFCSEGCVLLYKQDF [L9D], the abundance fitness was -0.073 ± 0.056.

On to LSCHYCHSLFSGKPEVLDWQDQVFQFCCRDCCEDFKRLRGVVSQCEHCRQEKRLHEKLRFSGVEKSFCSEGCVLLYKQDF [L53R], for which the abundance fitness was -0.327 ± 0.11.

On to LSCHYCHSLFSGKPEVLDWQDQVFQFCCRDCCEDFKRLRGVVSQCEHCRQEKALHEKLRFSGVEKSFCSEGCVLLYKQDF [L53A], for which the abundance fitness is -0.313 ± 0.14.

Take LSCHYCHSLFSGKPEVLDWQDQVFQFCCRDCCEDFKRLRGVVSQCEHCRQEKLLHEKLRFSGVIKSFCSEGCVLLYKQDF [E64I]: the abundance fitness is -0.344 ± 0.46.

On to LSCHYCHSLFSGKPEVLDWQDQVFQFCCRDCCEDFKRLRGVVSQCEHCRQEKLLHEKLRFSGVEKSFCSEGCVMLYKQDF [L74M], for which the abundance fitness was found to be 0.292 ± 0.11.

With LSCHYCHSLFSGKPEVLDWQDQVFQFCCRDCCEDFKRLRGVVSQCEHCRQEKLLHEKLRFSGVEKRFCSEGCVLLYKQDF [S66R], the abundance fitness is -0.059 ± 0.085.

In the case of LSCHYCHSLFSGKPEVLDWQDQVFQGCCRDCCEDFKRLRGVVSQCEHCRQEKLLHEKLRFSGVEKSFCSEGCVLLYKQDF [F26G], the abundance fitness is -0.603 ± 0.058.

For the variant LSCHYCHSLFSGKPEVLDWQDQVFQMCCRDCCEDFKRLRGVVSQCEHCRQEKLLHEKLRFSGVEKSFCSEGCVLLYKQDF [F26M], the abundance fitness came out at 0.134 ± 0.051.

For the variant LSCHYCHSLFSGKPEVLDWQDQVFQTCCRDCCEDFKRLRGVVSQCEHCRQEKLLHEKLRFSGVEKSFCSEGCVLLYKQDF [F26T], the abundance fitness is -0.489 ± 0.062.

Consider LSCHYCHSLFSGKPEVLDWQDQVFQFCCRDCCEFFKRLRGVVSQCEHCRQEKLLHEKLRFSGVEKSFCSEGCVLLYKQDF [D34F], for which the abundance fitness was -0.192 ± 0.071.

LSCHYCHSLFSGKPGVLDWQDQVFQFCCRDCCEDFKRLRGVVSQCEHCRQEKLLHEKLRFSGVEKSFCSEGCVLLYKQDF [E15G]: the abundance fitness was -0.56 ± 0.082.

As for LSCHYCHSLFSGKPEVLDWQDQVFQFCCRDCCEDFKRLRGVVSQCEHCRQEKLGHEKLRFSGVEKSFCSEGCVLLYKQDF [L54G], the abundance fitness is -0.536 ± 0.095.

With LSCHYCHSLFSGKPEVLDWQDQVFQFCCRDCCEDFKRLRGKVSQCEHCRQEKLLHEKLRFSGVEKSFCSEGCVLLYKQDF [V41K], the abundance fitness turned out to be 0.398 ± 0.39.

LSCHYCHSLFSGKPEVLDWQDQVFQFCLRDCCEDFKRLRGVVSQCEHCRQEKLLHEKLRFSGVEKSFCSEGCVLLYKQDF [C28L]: the abundance fitness was -0.758 ± 0.059.

Consider LSCHYCHSLFSGKPEVLDWQDQVFQFCCRDCCEDFKRLRGVVSQCEHCRQEKLLHEKLRFSGVEKSFCSEGCDLLYKQDF [V73D], for which the abundance fitness was -0.521 ± 0.24.

On to LSCHYCHSLFSGKPEVLDWQDQVFQFCCRDCCEDFKRLRGVVSQCEHCRQEKLLHEKLRFSGVERSFCSEGCVLLYKQDF [K65R], for which the abundance fitness was -0.115 ± 0.098.

As to LSCHYCHSLFSGKPEVLDWQDQVFQFCCRDCCEDFKRLRGVVSQCEHCRQEKLLHEKLRFSGVEQSFCSEGCVLLYKQDF [K65Q], the abundance fitness was -0.692 ± 0.27.

For the variant LSCHYCHSLFSGKPEVLDWQDQVFQFCCRDCCEDFKRLRGVVSQCEHCRQEKLLHEPLRFSGVEKSFCSEGCVLLYKQDF [K57P], the abundance fitness is -0.804 ± 0.26.

With LSCHYCHSLFSGKPEVLDWQDQVFQFCCNDCCEDFKRLRGVVSQCEHCRQEKLLHEKLRFSGVEKSFCSEGCVLLYKQDF [R29N], the abundance fitness stood at 0.206 ± 0.075.

For LSCHYCHSLFSGKPEVLDWQDQVFQFCCWDCCEDFKRLRGVVSQCEHCRQEKLLHEKLRFSGVEKSFCSEGCVLLYKQDF [R29W], the abundance fitness was -0.049 ± 0.047.

With LSCHYCHSLFSGKPEVLDWQDQVFQFCCRDCCEDFKRLRGVVSQCEHCRQDKLLHEKLRFSGVEKSFCSEGCVLLYKQDF [E51D], the abundance fitness was 0.187 ± 0.35.

Regarding LSCHYCHSLFSGKPEVLDWQDQVFQFCCRDCCEDFKRLRGVVSQCEHCRQEKLLHEKLRFSGVEKSFCSEGTVLLYKQDF [C72T], the abundance fitness is -0.869 ± 0.22.

In the case of LSCHYCHSLFSGKPEVLDWQDQVFQFCCRDCCEDFKRLRGVVSQCEHCRQEKLLHEKLRFSGEEKSFCSEGCVLLYKQDF [V63E], the abundance fitness was found to be 0.175 ± 0.11.

With LSCHYCHSLFSGKPEVLDWQDQVFQFSCRDCCEDFKRLRGVVSQCEHCRQEKLLHEKLRFSGVEKSFCSEGCVLLYKQDF [C27S], the abundance fitness is -0.892 ± 0.086.

Turning to LSCHYCHSLRSGKPEVLDWQDQVFQFCCRDCCEDFKRLRGVVSQCEHCRQEKLLHEKLRFSGVEKSFCSEGCVLLYKQDF [F10R], the abundance fitness is -0.498 ± 0.05.

In the case of LSCHYCHSLFSGKPEVLDWQDQVFQFCCRDCCEDFKRLRGVVMQCEHCRQEKLLHEKLRFSGVEKSFCSEGCVLLYKQDF [S43M], the abundance fitness came to 0.105 ± 0.11.

Turning to LSCHYCHSLFSGKPEVLDWQDQVFQFCCRDCCEDFKRLRGVVSQCEHCRQEKLLHEKLRFSGVEKSFCSEGCVLLYKQLF [D79L], the abundance fitness was 0.034 ± 0.13.

On to LSCHPCHSLFSGKPEVLDWQDQVFQFCCRDCCEDFKRLRGVVSQCEHCRQEKLLHEKLRFSGVEKSFCSEGCVLLYKQDF [Y5P], for which the abundance fitness was -0.906 ± 0.076.

LSCHFCHSLFSGKPEVLDWQDQVFQFCCRDCCEDFKRLRGVVSQCEHCRQEKLLHEKLRFSGVEKSFCSEGCVLLYKQDF [Y5F]: the abundance fitness was 0.095 ± 0.051.

For LSCHYCHSLFSGKPEPLDWQDQVFQFCCRDCCEDFKRLRGVVSQCEHCRQEKLLHEKLRFSGVEKSFCSEGCVLLYKQDF [V16P], the abundance fitness is -0.099 ± 0.063.

Take LSCHYCHSLFSGKPEFLDWQDQVFQFCCRDCCEDFKRLRGVVSQCEHCRQEKLLHEKLRFSGVEKSFCSEGCVLLYKQDF [V16F]: the abundance fitness is -0.229 ± 0.12.

The values above are taken from the Human Domainome abundance scans (Beltran et al. 2025).
